Reference: patent US20250326860A1 (ADAGENE PTE, published 2025)
Positions count from the first letter of the chain named. Names and notes keep the numbering of the source. Values belong to the binder of their own block, whether it stands above or below them.

Tests used:
[1] = molecular target: T1, human CD3 on cells (Jurkat cells, human T cells) (human, UniProt P07766 23-207); test: flow cytometry on Jurkat cells, anti-human IgG AF647 secondary antibody
T1 construct: whole, on cells
Experimental: The ability of the parental huOKT3 anti-CD3 antibody TAC2245 and the activatable huOKT3 anti-CD3 antibody TY23104 to bind Jurkat cells was measured in a dose-dependent binding assay.
The Jurkat cells were thawed, washed and cultured in an incubator. 4×10⁵ Jurkat cells/well were aliquoted into 96-well plate and incubated with parental huOKT3 TAC2245 or activatable huOKT3 for 1 hour at 4° C. After centrifugation and washing, Jurkat cells were further incubated with the secondary antibody anti-human IgG AF647 for 30 minutes at 4° C. After centrifugation and washing, the Jurkat cells labelled with antibodies were re-suspended in 2% FBS DPBS and analyzed by FACS.

[2] = molecular target: T1, human CD3 on cells (Jurkat cells, human …); test: cell-based or functional assay
[3] = molecular target: T1, human CD3 on cells (Jurkat cells, human …); test: flow cytometry, human CD3+ T cells
Description: (§1) Human PBMCs were freshly isolated from the blood of healthy donors by density gradient centrifugation using Histopaque-1077 (Sigma). Human CD3+ T cells were further isolated from PBMCs using the Human T Cell Enrichment Kit (Stem Cell Technologies). Monkey PBMCs were isolated from a naïve cynomolgus monkey by density gradient centrifugation using Histopaque-1077 (Sigma). Monkey CD3+ T cells were isolated from PBMCs using the Pan T Cell Isolation Kit Non-Human Primate (Miltenyi Biotec). Purified human or monkey CD3+ T cells were stained with the testing antibodies as the primary antibody and the APC-labelled anti-human-Fc antibody (BioLegend) as the secondary antibody. After washing, the cells were analyzed on the CytoFLEX flow cytometer (Beckman Coulter) and the data was analyzed by FlowJo software.

[4] = molecular target: T2, cynomolgus monkey CD3 on T cells (cynomolgus monkey, UniProt Q95LI5 22-198); test: flow cytometry, monkey CD3+ T cells
T2 construct: whole, on cells
Description: as §1

[5] = molecular target: T1, human CD3 on cells (Jurkat cells, human …); test: Jurkat cell binding
[6] = molecular target: T3, human CD20 on cells (human B cells; Raji, SU-DHL-8, SU-DHL-4, A3KAW, NAMALWA) (human, UniProt P11836 1-297); test: flow cytometry, Raji cells
T3 construct: whole, on cells
T3 sequence (looked up): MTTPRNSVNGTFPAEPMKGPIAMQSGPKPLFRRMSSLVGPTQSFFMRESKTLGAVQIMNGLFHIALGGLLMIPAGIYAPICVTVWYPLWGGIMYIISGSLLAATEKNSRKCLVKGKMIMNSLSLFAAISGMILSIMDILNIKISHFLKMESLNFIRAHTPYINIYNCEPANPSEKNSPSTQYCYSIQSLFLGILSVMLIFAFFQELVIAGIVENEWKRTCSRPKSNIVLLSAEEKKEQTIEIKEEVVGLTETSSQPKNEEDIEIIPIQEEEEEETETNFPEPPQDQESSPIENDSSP
Experimental: (§2) Raji, SU-DHL-8, SU-DHL-4, A3KAW and NAMALWA were B-cell lymphoma cell lines with various CD20 expression levels on cell surface. Briefly, the test antibodies were serial diluted and were incubated with the tumor cells on ice. After washing, the cells were subsequently incubated with the APC-labelled anti-human-Fc secondary antibody (BioLegend) on ice. The cells were then washed with PBS prior to analysis by the CytoFLEX flow cytometer (Beckman Coulter). The data was analyzed by FlowJo software.

[7] = molecular target: T3, human CD20 on cells (human B cells; …); test: flow cytometry, SU-DHL-4 cells
Experimental: as §2

[8] = molecular target: T3, human CD20 on cells (human B cells; …); test: flow cytometry, SU-DHL-8 cells
Experimental: as §2

[9] = molecular target: T3, human CD20 on cells (human B cells; …); test: flow cytometry, NAMALWA cells
Experimental: as §2

[10] = molecular target: T4, cynomolgus monkey CD20 on B cells (cynomolgus monkey, UniProt M4ZHZ6 1-297); test: flow cytometry, monkey B cells
T4 construct: whole, on cells
T4 sequence: T3 sequence (looked up) with S25P, F31L, T51A, A157V, K217R, N226S, I227V, T239V
Description: (§3) Human and monkey PBMCs were isolated as mentioned above. Human B cells were further isolated from PBMCs using the EasySep™ Human B Cell Isolation Kit (Stem Cell Technologies). Monkey B cells were isolated from PBMCs using the Non-Human B Primate Cell Isolation Kit (Stem Cell Technologies). Purified human or monkey B cells were stained with the testing antibodies as the primary antibody and the APC-labelled anti-human-Fc antibody (BioLegend) as the secondary antibody. After washing, the cells were analyzed on the CytoFLEX flow cytometer (Beckman Coulter) and the data was analyzed by FlowJo software.

[11] = molecular target: T3, human CD20 on cells (human B cells; …); test: flow cytometry, human B cells
Description: as §3

[12] = molecular target: T3, human CD20 on cells (human B cells; …); test: flow cytometry, A3KAW cells
Experimental: as §2

T1 sequence (P07766 23-207): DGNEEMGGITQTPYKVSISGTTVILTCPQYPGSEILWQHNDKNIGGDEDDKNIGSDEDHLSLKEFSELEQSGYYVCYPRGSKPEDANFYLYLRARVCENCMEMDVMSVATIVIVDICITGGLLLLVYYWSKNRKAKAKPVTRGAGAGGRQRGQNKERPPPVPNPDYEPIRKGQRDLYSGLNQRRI
T2 sequence (Q95LI5 22-198): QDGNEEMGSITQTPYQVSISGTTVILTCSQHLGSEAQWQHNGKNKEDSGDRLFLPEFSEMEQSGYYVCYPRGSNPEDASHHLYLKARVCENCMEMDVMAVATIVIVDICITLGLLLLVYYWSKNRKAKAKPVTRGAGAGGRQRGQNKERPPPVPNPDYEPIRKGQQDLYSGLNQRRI

EC50 (read off the curve) [1]: ~70 nM
B1: TY23104 (antibody, human IgG4 S228P, kappa)
light: EVGSYAYHDDDCPDDDYDCASSGRSAGGGGTPLGLAGSGGSDIQMTQSPSSLSASVGDRVTITCSASSSVSYMNWYQQTPGKAPKRWIYDTSKLASGVPSRFSGSGSGTDYTFTISSLQPEDIATYYCQQWSSNPFTFGQGTKLQITRTVAAPSVFIFPPSDEQLKSGTASVVCLLNNFYPREAKVQWKVDNALQSGNSQESVTEQDSKDSTYSLSSTLTLSKADYEKHKVYACEVTHQGLSSPVTKSFNRGEC
heavy: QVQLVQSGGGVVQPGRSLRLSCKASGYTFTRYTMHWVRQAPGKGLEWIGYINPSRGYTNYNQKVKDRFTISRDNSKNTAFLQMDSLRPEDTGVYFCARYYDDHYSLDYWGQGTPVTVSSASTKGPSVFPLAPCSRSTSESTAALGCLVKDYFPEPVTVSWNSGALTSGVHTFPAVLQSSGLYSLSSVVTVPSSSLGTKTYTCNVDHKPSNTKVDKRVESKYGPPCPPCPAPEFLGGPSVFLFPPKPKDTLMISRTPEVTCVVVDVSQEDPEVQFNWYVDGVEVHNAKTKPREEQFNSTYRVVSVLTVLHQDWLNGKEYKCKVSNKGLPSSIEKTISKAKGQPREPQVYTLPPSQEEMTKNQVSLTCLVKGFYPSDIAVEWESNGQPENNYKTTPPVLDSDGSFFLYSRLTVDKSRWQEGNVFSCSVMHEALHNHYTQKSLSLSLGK
notes: also called anti-CD3 SAFEbody

EC50 (read off the curve) [1]: ~0.3 nM
B2: TAC2245 (antibody, V domains shown)
VH: QVQLVQSGGGVVQPGRSLRLSCKASGYTFTRYTMHWVRQAPGKGLEWIGYINPSRGYTNYNQKVKDRFTISRDNSKNTAFLQMDSLRPEDTGVYFCARYYDDHYSLDYWGQGTPVTVSS
VL: DIQMTQSPSSLSASVGDRVTITCSASSSVSYMNWYQQTPGKAPKRWIYDTSKLASGVPSRFSGSGSGTDYTFTISSLQPEDIATYYCQQWSSNPFTFGQGTKLQIT
notes: also called huOKT3-C114S-gLC; parental huOKT3 anti-CD3 antibody

Jurkat NFAT reporter assay EC50 [2]: 7.9 nM
Masking efficiency (Jurkat NFAT reporter assay) [2]: 419 fold
B3: TY23118 (antibody)
light: EVGSYDADDPDCPADNNHCHYSGRSAGGGGTPLGLAGSGGSQAVVTQEPSLTVSPGGTVTLTCGSSTGAVTTSNYANWVQQKPGQAPRGLIGGTNKRAPGVPARFSGSLLGGKAALTLSGAQPEDEAEYYCALWYSNLWVFGGGTKLTVLRTVAAPSVFIFPPSDEQLKSGTASVVCLLNNFYPREAKVQWKVDNALQSGNSQESVTEQDSKDSTYSLSSTLTLSKADYEKHKVYACEVTHQGLSSPVTKSFNRGEC
heavy: not shown

Jurkat NFAT reporter assay EC50 [2]: 7.7 nM
Masking efficiency (Jurkat NFAT reporter assay) [2]: 409 fold
B4: TY23115 (antibody)
light: B3 light with D6P, A7Y, A14S, D15H, N16D, N17S, H18D, H20D, Y21N
heavy: not shown

Jurkat NFAT reporter assay EC50 [2]: 3.6 nM
Masking efficiency (Jurkat NFAT reporter assay) [2]: 191 fold
B5: TY23110 (antibody)
light: B3 light with D6A, A7P, D8H, N16P, N17P, H18S, H20Y, Y21P
heavy: not shown

EC50 [3]: 28.8 nM
max MFI [3]: 2260 MFI
EC50 [4]: 20.7 nM
max MFI [4]: 1120 MFI
B6: TY25715 (bispecific antibody, human IgG1, kappa, N297A)
light: QIVLSQSPAILSASPGEKVTMTCRASSSVSYIHWFQQKPGKSPKPWIYATSNLASGVPVRFSGSGSGTSYSLTISRVEAEDAATYYCQQWTSNPPTFGGGTKVEIKRTVAAPSVFIFPPSDEQLKSGTASVVCLLNNFYPREAKVQWKVDNALQSGNSQESVTEQDSKDSTYSLSSTLTLSKADYEKHKVYACEVTHQGLSSPVTKSFNRGEC
heavy: EVQLVQSGAEVKKPGSSVKVSCKASGYTFTSYNMHWVRQAPGKGLEWIGAIYPGSGDTSYNQKFKGRVTITADKSTSTAYMELSSLRSEDTAVYYCARSTYYGGDWYFNVWGQGTLVTVSSASTKGPSVFPLAPSSKSTSGGTAALGCLVKDYFPEPVTVSWNSGALTSGVHTFPAVLQSSGLYSLSSVVTVPSSSLGTQTYICNVNHKPSNTKVDKKVEPKSCDKTHTCPPCPAPELLGGPSVFLFPPKPKDTLMISRTPEVTCVVVDVSHEDPEVKFNWYVDGVEVHNAKTKPREEQYASTYRVVSVLTVLHQDWLNGKEYKCKVSNKALPAPIEKTISKAKGQPREPQVYTLPPSRKKLTKNQVKLTCLVKGFYPSDIAVEWESNGQPENNYKTTPPVLDCDGSFFLYSKLTVDKSRWQQGNVFSCSVMHEALHNHYTQKSLSLSPGK
chain: EAVVTQEPSLTVSPGGTVTLTCGSSTGAVTTSNYPNWVQQKPGQAPRGLIGGTNKRAPGTPARFSGSLLGGKAALTLSGAQPEDEAEYYCALWYSDLWVFGGGTKLTVLGGGGSGGGGSGGGGSGGGGSEVQLVESGGGLVQPGGSLRLSCAASGFTFSTYAINWVRQAPGKGLEWVSRIRSKYNNYATYYAESVKDRFTISRDDSKNTLYLQINSLRAEDTAVYYCVRHGNFGTSYVSWFAYWGQGTLVTVSSEPKSSDKTHTCPPCPAPELLGGPSVFLFPPKPKDTLMISRTPEVTCVVVDVSHEDPEVKFNWYVDGVEVHNAKTKPREEQYASTYRVVSVLTVLHQDWLNGKEYKCKVSNKALPAPIEKTISKAKGQPREPQVYTDPPSRDELTKNQVSLTCLVDGFYPSDIAVEWESNGQPENCYKTTPPVLDSDGSFFLYSKLTVDKSRWQQGNVFSCSVMHEALHNHYTQDSLSLSPGK
notes: also called parental CD20xCD3 bispecific antibody of TY25716

EC50 [5]: 260 nM
B7: TY25524 (bispecific antibody, human IgG1, kappa, N297A)
light: not shown
heavy: not shown
chain: B6 chain with P35A, N54K, K55F, T60I, L97H, S178G, D197G, V228A

EC50 [6]: 28 nM
Max MFI [6]: 23500 MFI
EC50 [7]: 14.6 nM
Max MFI [7]: 2.48e+06 MFI
EC50 [8]: 37.2 nM
Max MFI [8]: 5280 MFI
EC50 [9]: 162 nM
Max MFI [9]: 647000 MFI
EC50 [10]: 13.5 nM
max MFI [10]: 28100 MFI
EC50 [11]: 14.5 nM
max MFI [11]: 50000 MFI
EC50 [12]: 220 nM
Max MFI [12]: 967000 MFI
B8: TY25716 (bispecific antibody, human IgG1, kappa, N297A)
light: B6 light
heavy: B6 heavy
chain: EVGSYPYDDPDCPSHESDCDQGGGPLGLAGGSEAVVTQEPSLTVSPGGTVTLTCGSSTGAVTTSNYPNWVQQKPGQAPRGLIGGTNKRAPGTPARFSGSLLGGKAALTLSGAQPEDEAEYYCALWYSDLWVFGGGTKLTVLGGGGSGGGGSGGGGSGGGGSEVQLVESGGGLVQPGGSLRLSCAASGFTFSTYAINWVRQAPGKGLEWVSRIRSKYNNYATYYAESVKDRFTISRDDSKNTLYLQINSLRAEDTAVYYCVRHGNFGTSYVSWFAYWGQGTLVTVSSEPKSSDKTHTCPPCPAPELLGGPSVFLFPPKPKDTLMISRTPEVTCVVVDVSHEDPEVKFNWYVDGVEVHNAKTKPREEQYASTYRVVSVLTVLHQDWLNGKEYKCKVSNKALPAPIEKTISKAKGQPREPQVYTDPPSRDELTKNQVSLTCLVDGFYPSDIAVEWESNGQPENCYKTTPPVLDSDGSFFLYSKLTVDKSRWQQGNVFSCSVMHEALHNHYTQDSLSLSPGK
